Kd data for 2 substances are collected here from article PMC3338420.

The target in one assay is SNX18 (Homo sapiens) (UniProt Q96RF0). The following applies: cited from earlier work.
The target in assay [1] is Rab6a/RPRdel complex (Rab6a with RUN1-PLAT-RUN2 of DENND5A, loop 813–835 deleted) (human | mouse) (UniProt P20340). The assay can be described thus: SPR; Biacore X-100, 293 K; Rab6/RPRdel or Rab6/RPdel amine-coupled to a CM5 chip (about 2,500 RU); SNX1 fragments as analytes, 0.2 to 40 µM; 100 mM NaCl, 1 mM DTT, 0.005% P20, 10 mM HEPES pH 8.0; multi-cycle; equilibrium KD from a 1:1 model.
UniProt P20340, sequence (P20340 8-195 Q72L, chain 1 of 2): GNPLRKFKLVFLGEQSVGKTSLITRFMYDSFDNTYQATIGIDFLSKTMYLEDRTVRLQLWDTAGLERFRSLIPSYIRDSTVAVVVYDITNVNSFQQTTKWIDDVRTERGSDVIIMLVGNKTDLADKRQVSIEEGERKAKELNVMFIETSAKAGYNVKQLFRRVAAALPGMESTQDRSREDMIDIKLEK
UniProt P20340, sequence (Q6PAL8 other isoform, or with tags, fused parts or gaps, chain 2 of 2, further chain): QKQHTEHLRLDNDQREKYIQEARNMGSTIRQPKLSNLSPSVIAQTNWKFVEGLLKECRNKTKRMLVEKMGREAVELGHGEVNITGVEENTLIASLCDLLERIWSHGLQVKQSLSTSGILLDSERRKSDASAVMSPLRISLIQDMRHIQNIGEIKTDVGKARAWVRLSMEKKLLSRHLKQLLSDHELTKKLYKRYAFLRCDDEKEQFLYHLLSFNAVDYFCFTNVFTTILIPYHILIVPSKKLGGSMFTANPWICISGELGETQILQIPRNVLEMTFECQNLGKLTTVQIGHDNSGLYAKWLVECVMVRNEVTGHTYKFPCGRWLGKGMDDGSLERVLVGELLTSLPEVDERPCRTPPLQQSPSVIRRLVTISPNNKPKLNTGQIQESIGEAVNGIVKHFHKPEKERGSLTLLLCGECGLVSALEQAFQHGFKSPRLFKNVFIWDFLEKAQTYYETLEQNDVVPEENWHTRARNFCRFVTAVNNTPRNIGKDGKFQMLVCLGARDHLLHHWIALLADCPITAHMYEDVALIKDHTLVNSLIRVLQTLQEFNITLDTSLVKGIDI

UniProt Q96RF0, sequence (Q96RF0 whole entry, the tested form may be a part): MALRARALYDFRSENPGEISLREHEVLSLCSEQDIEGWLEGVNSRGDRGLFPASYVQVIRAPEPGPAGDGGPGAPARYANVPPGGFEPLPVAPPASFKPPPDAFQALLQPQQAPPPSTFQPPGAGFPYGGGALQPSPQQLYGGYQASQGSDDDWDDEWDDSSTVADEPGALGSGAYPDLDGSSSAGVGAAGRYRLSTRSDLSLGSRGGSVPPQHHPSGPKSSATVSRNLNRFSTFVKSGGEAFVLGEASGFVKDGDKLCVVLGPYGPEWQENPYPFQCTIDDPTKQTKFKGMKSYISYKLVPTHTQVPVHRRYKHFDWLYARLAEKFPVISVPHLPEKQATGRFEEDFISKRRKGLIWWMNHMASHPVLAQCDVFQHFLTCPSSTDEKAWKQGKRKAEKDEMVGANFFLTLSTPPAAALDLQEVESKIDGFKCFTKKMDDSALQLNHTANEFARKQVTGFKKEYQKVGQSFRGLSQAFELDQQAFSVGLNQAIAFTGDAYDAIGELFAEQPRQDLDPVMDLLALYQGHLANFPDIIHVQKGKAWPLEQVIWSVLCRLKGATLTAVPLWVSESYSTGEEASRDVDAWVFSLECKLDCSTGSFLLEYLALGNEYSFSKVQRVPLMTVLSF

As usually defined, the Kd is the equilibrium constant for the complex coming apart. Take FIP5 (from UniProt Q9BXF6): the Kd with SNX18 (Homo sapiens) is 1600 nM. Turning to “SNX1 SNX-PX (9–303) (from UniProt Q9WV80 9-303) (domain or fragment)”, the Kd in assay [1] is 1700 nM.
